# Laboratory results: patent US20070077597A1 (published 2007)
# T1: human thrombin receptor (PAR1) (human, UniProt P25116 42-425)
# T1 sequence (looked up): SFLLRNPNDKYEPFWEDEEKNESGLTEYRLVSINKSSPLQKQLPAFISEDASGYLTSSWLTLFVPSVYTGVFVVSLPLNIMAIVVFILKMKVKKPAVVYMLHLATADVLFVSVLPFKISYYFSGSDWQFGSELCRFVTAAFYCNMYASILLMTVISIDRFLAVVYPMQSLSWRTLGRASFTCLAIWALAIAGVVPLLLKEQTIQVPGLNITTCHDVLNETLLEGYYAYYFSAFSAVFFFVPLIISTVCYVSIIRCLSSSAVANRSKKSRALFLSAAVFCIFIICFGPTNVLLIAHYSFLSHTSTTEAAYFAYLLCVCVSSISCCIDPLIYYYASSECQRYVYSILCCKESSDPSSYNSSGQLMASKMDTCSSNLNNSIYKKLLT
# Molecular target: T2, light-activated bovine rhodopsin (metarhodopsin II) in rod outer segment membranes (bovine, UniProt P02699 1-348, retinylidene chromophore on Lys-296 (all-trans after light))
# T2 construct: whole, on cells; also called MII
# T2 sequence (P02699 whole entry): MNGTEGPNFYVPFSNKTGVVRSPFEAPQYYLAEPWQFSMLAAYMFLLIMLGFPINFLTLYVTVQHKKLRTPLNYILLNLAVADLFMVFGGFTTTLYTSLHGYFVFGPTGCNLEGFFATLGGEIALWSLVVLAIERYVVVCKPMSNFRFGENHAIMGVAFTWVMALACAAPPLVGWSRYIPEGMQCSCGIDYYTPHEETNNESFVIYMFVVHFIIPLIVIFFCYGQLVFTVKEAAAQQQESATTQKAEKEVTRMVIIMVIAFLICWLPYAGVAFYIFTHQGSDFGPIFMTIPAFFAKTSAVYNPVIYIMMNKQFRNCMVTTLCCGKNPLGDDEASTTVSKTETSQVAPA
# Experiment: first screening of the Gαt library on light-activated rhodopsin
row,fold higher binding than the native sequence,Molecule
1,1000 fold,"LacI fusion clone 8 (Gt library) (other, E. coli, not shown: small tags and cut ends, also called Peptide 8; HAP) MKPVTLYDVAEYAGVSYQTVSRVVNQASHVSAKTREKVEAAMAELNYIPNRVAQQLAGKQSLLIGVATSSLALHAPSQIVAAIKSRADQLGASVVVSMVERSGVEACKAAVHNLLAQRVSGLIINYPLDDQDAIAVEAACTNVPALFLDVSDQTPINSIIFSHEDGTRLGVEHLVALGHQQIALLAGPLSSVSARLRLAGWHKYLTRNQIQPIAEREGDWSAMSGFQQTMQMLNEGIVPTAMLVANDQMALGAMRAITESGLRVGADISVVGYDDTEDSSCYIPPLTTIKQDFRLLGQTSVDRLLQLSQGQAVKGNQLLPVSLVKRKTTLAPNTQTASPRALADSLMQLARQVSRLESGQLLENLRDCGMF"

# Molecular target: T1, human thrombin receptor (PAR1)
# Experiment: ELISA dose-response, purified MBP-Gαq on purified reconstituted PAR1 with thrombin receptor activating peptide
row,IC50,Molecule
1,0.214 µM,"purified maltose binding protein-Gαq (MBP-Gαq), native Gq C-terminal peptide fusion"

# Molecular target: T1, human thrombin receptor (PAR1)
# Experiment: cell-based or functional assay
row,Molecule,thrombin-mediated HA-MAPK activity in HMEC
1,MGLHDNLKQLMLQ [Gα13 C-terminal minigene peptide (pcDNA-Gα13)],77 % decrease
2,MGLQENLKDIMLQ [Gα12 C-terminal minigene peptide (pcDNA-Gα12)],50 % decrease

# More lines, now with the values ahead:
row,thrombin-mediated HA-MAPK activity in HMEC,Molecule
1,59 % decrease,MGIKNNLKDCGLF [Gαi C-terminal minigene peptide (pcDNA-Gαi)]
2,57 % decrease,MGLQLNLKEYNAV [Gαq C-terminal minigene peptide (pcDNA-Gαq)]

# Molecular target: T2, light-activated bovine rhodopsin …
# Experiment: ELISA of clone lysate on rhodopsin
# Method: The methods of Example 7 repeated using rhodopsin screening with a Gt library. To identify the rank order of binding, the lysates were analyzed using ELISA methods in which the secondary antibody was conjugated to HRP. Following addition of the substrate, the microplate was read using a spectrophotometer. The binding is the OD₄₅₀ for wells with receptor—OD₄₅₀ for wells in which no receptor (control wells with empty lipid vesicles).
row,Molecule,ELISA (OD450 with receptor minus OD450 without receptor)
1,"LacI fusion clone L3 (Gt library) (other, E. coli, not shown: small tags and cut ends) MKPVTLYDVAEYAGVSYQTVSRVVNQASHVSAKTREKVEAAMAELNYIPNRVAQQLAGKQSLLIGVATSSLALHAPSQIVAAIKSRADQLGASVVVSMVERSGVEACKAAVHNLLAQRVSGLIINYPLDDQDAIAVEAACTNVPALFLDVSDQTPINSIIFSHEDGTRLGVEHLVALGHQQIALLAGPLSSVSARLRLAGWHKYLTRNQIQPIAEREGDWSAMSGFQQTMQMLNEGIVPTAMLVANDQMALGAMRAITESGLRVGADISVVGYDDTEDSSCYIPPLTTIKQDFRLLGQTSVDRLLQLSQGQAVKGNQLLPVSLVKRKTTLAPNTQTASPRALADSLMQLARQVSRLESGQILENLKDCGLF",0.839 OD450
2,"LacI fusion clone L10 (Gt library), IHDRLKDCGLF (other, E. coli, not shown: small tags and cut ends, this is the first) MKPVTLYDVAEYAGVSYQTVSRVVNQASHVSAKTREKVEAAMAELNYIPNRVAQQLAGKQSLLIGVATSSLALHAPSQIVAAIKSRADQLGASVVVSMVERSGVEACKAAVHNLLAQRVSGLIINYPLDDQDAIAVEAACTNVPALFLDVSDQTPINSIIFSHEDGTRLGVEHLVALGHQQIALLAGPLSSVSARLRLAGWHKYLTRNQIQPIAEREGDWSAMSGFQQTMQMLNEGIVPTAMLVANDQMALGAMRAITESGLRVGADISVVGYDDTEDSSCYIPPLTTIKQDFRLLGQTSVDRLLQLSQGQAVKGNQLLPVSLVKRKTTLAPNTQTASPRALADSLMQLARQVSRLESGQIHDRLKDCGLF",0.506 OD450
3,"LacI fusion clone L14 (Gt library) (other, E. coli, not shown: small tags and cut ends) MKPVTLYDVAEYAGVSYQTVSRVVNQASHVSAKTREKVEAAMAELNYIPNRVAQQLAGKQSLLIGVATSSLALHAPSQIVAAIKSRADQLGASVVVSMVERSGVEACKAAVHNLLAQRVSGLIINYPLDDQDAIAVEAACTNVPALFLDVSDQTPINSIIFSHEDGTRLGVEHLVALGHQQIALLAGPLSSVSARLRLAGWHKYLTRNQIQPIAEREGDWSAMSGFQQTMQMLNEGIVPTAMLVANDQMALGAMRAITESGLRVGADISVVGYDDTEDSSCYIPPLTTIKQDFRLLGQTSVDRLLQLSQGQAVKGNQLLPVSLVKRKTTLAPNTQTASPRALADSLMQLARQVSRLESGQLRENLKDCGLL",0.833 OD450
4,"LacI fusion clone L38 (Gt library) (other, E. coli, not shown: small tags and cut ends) MKPVTLYDVAEYAGVSYQTVSRVVNQASHVSAKTREKVEAAMAELNYIPNRVAQQLAGKQSLLIGVATSSLALHAPSQIVAAIKSRADQLGASVVVSMVERSGVEACKAAVHNLLAQRVSGLIINYPLDDQDAIAVEAACTNVPALFLDVSDQTPINSIIFSHEDGTRLGVEHLVALGHQQIALLAGPLSSVSARLRLAGWHKYLTRNQIQPIAEREGDWSAMSGFQQTMQMLNEGIVPTAMLVANDQMALGAMRAITESGLRVGADISVVGYDDTEDSSCYIPPLTTIKQDFRLLGQTSVDRLLQLSQGQAVKGNQLLPVSLVKRKTTLAPNTQTASPRALADSLMQLARQVSRLESGQLLDILKDCGLF",0.823 OD450

# Results, then the molecule that gave them:
row,ELISA (OD450 with receptor minus OD450 without receptor),Molecule
1,0.423 OD450,"LacI fusion clone 13 (Gt library), IRGSLKDCGLF (other, E. coli, not shown: small tags and cut ends, also called L20) MKPVTLYDVAEYAGVSYQTVSRVVNQASHVSAKTREKVEAAMAELNYIPNRVAQQLAGKQSLLIGVATSSLALHAPSQIVAAIKSRADQLGASVVVSMVERSGVEACKAAVHNLLAQRVSGLIINYPLDDQDAIAVEAACTNVPALFLDVSDQTPINSIIFSHEDGTRLGVEHLVALGHQQIALLAGPLSSVSARLRLAGWHKYLTRNQIQPIAEREGDWSAMSGFQQTMQMLNEGIVPTAMLVANDQMALGAMRAITESGLRVGADISVVGYDDTEDSSCYIPPLTTIKQDFRLLGQTSVDRLLQLSQGQAVKGNQLLPVSLVKRKTTLAPNTQTASPRALADSLMQLARQVSRLESGQIRGSLKDCGLF"
2,0.621 OD450,"LacI fusion clone L15 (Gt library) (other, E. coli, not shown: small tags and cut ends) MKPVTLYDVAEYAGVSYQTVSRVVNQASHVSAKTREKVEAAMAELNYIPNRVAQQLAGKQSLLIGVATSSLALHAPSQIVAAIKSRADQLGASVVVSMVERSGVEACKAAVHNLLAQRVSGLIINYPLDDQDAIAVEAACTNVPALFLDVSDQTPINSIIFSHEDGTRLGVEHLVALGHQQIALLAGPLSSVSARLRLAGWHKYLTRNQIQPIAEREGDWSAMSGFQQTMQMLNEGIVPTAMLVANDQMALGAMRAITESGLRVGADISVVGYDDTEDSSCYIPPLTTIKQDFRLLGQTSVDRLLQLSQGQAVKGNQLLPVSLVKRKTTLAPNTQTASPRALADSLMQLARQVSRLESGQVRDILKDCGLF"
3,0.342 OD450,"LacI fusion clone L6 (Gt library) (other, E. coli, not shown: small tags and cut ends) MKPVTLYDVAEYAGVSYQTVSRVVNQASHVSAKTREKVEAAMAELNYIPNRVAQQLAGKQSLLIGVATSSLALHAPSQIVAAIKSRADQLGASVVVSMVERSGVEACKAAVHNLLAQRVSGLIINYPLDDQDAIAVEAACTNVPALFLDVSDQTPINSIIFSHEDGTRLGVEHLVALGHQQIALLAGPLSSVSARLRLAGWHKYLTRNQIQPIAEREGDWSAMSGFQQTMQMLNEGIVPTAMLVANDQMALGAMRAITESGLRVGADISVVGYDDTEDSSCYIPPLTTIKQDFRLLGQTSVDRLLQLSQGQAVKGNQLLPVSLVKRKTTLAPNTQTASPRALADSLMQLARQVSRLESGQICENLKDCGLF"
4,1.01 OD450,"LacI fusion clone L33 (Gt library) (other, E. coli, not shown: small tags and cut ends) MKPVTLYDVAEYAGVSYQTVSRVVNQASHVSAKTREKVEAAMAELNYIPNRVAQQLAGKQSLLIGVATSSLALHAPSQIVAAIKSRADQLGASVVVSMVERSGVEACKAAVHNLLAQRVSGLIINYPLDDQDAIAVEAACTNVPALFLDVSDQTPINSIIFSHEDGTRLGVEHLVALGHQQIALLAGPLSSVSARLRLAGWHKYLTRNQIQPIAEREGDWSAMSGFQQTMQMLNEGIVPTAMLVANDQMALGAMRAITESGLRVGADISVVGYDDTEDSSCYIPPLTTIKQDFRLLGQTSVDRLLQLSQGQAVKGNQLLPVSLVKRKTTLAPNTQTASPRALADSLMQLARQVSRLESGQIVEILEDCGLF"
5,0.603 OD450,"LacI fusion clone L34 (Gt library) (other, E. coli, not shown: small tags and cut ends) MKPVTLYDVAEYAGVSYQTVSRVVNQASHVSAKTREKVEAAMAELNYIPNRVAQQLAGKQSLLIGVATSSLALHAPSQIVAAIKSRADQLGASVVVSMVERSGVEACKAAVHNLLAQRVSGLIINYPLDDQDAIAVEAACTNVPALFLDVSDQTPINSIIFSHEDGTRLGVEHLVALGHQQIALLAGPLSSVSARLRLAGWHKYLTRNQIQPIAEREGDWSAMSGFQQTMQMLNEGIVPTAMLVANDQMALGAMRAITESGLRVGADISVVGYDDTEDSSCYIPPLTTIKQDFRLLGQTSVDRLLQLSQGQAVKGNQLLPVSLVKRKTTLAPNTQTASPRALADSLMQLARQVSRLESGQILESLNECGLF"
